B1: TPR t1 (parent)
chain: GACCAAUCUGCCCUCAGAGCUCGAGAACAUCUUCGGAUGCAGAGGAGGCAGGCUUCGGUGGCGCGAUAGCGCCAACGUCCUCAACCUCCAAUGCAUCCCACCACAUGAUGAUGCCUGAAGAGCCUUGGUUUUUUG

Variants of: B1
Assay: polymerase ribozyme fitness, log enrichment relative to wild type (log ratio); higher = more active; in vitro selection for triplet polymerase activity
How it was run: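 One round of in vitro selection, in triplicate, was applied to PCR-built, transcribed mutant libraries of each subunit of a heterodimeric triplet polymerase ribozyme. The steps were annealing with a biotinylated primer, partner subunit and triplets, incubation frozen at −7 °C, gel excision of extended constructs, streptavidin-bead capture and RT-PCR. Fitness is the logarithm, base 2, of genotype enrichment over wild-type enrichment from inverse-variance-weighted replicate averages of Illumina-sequenced inputs and outputs, keeping genotypes with ≥10 input reads and ≥1 read per output.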

Compared with GACCAAUCUGCACUCAUAGCUCGAGAACAUCUUCGGAUGCAUAGGAGGCAGGGUUCGGCGGCGCGAUAGCGCCAACGUCCUCAACCUCCAAUGCAUCCCAACACAUGAUGAUGCCUGAAGAGCCUUGGUUUUUUG [C12A G17U G42U C53G U59C C101A], GACCAAUCUGCACUCAGAGCUCGAGAACAUCUGCGGAUGCAGAGGAGACAGGCUUCGGUGGCGCGAUAGCGCCAACGUCCUCAACCUCCAAUGCAUCCCACCACAUGAUGAUGCCUGAGGAGCCUUGGUUUUUUG [C12A U33G G48A A119G] is higher in “polymerase ribozyme fitness (log ratio)” value: -5.66 for the first, -5.25 for the second.

Compared with GACCAAUCUGCACUCAGAGCUCGAGAACAUCUUCGGAUGCAGAGGAGGCAUGCUUCGGUGGCGUGAUAGCGCCAACGUCCUCAACCUCCGAUGCAUCCCACCACAUGAUGAUGCCUGAAGAGCCUUGGUUUUUUG [C12A G51U C64U A90G], GACCAAUCUGCACUCAGAGCUCGAGAACAUCUUCGGAUGCAGAGGAGGCAGGCUUCGGUGUCGCGAUAGCGCCAACGACCUCAACCUCCAAUGCAACCCACCACAUGAUGAUGCCUGAAGAGCCUUGGUUUUUUG [C12A G61U U78A U96A] is higher in “polymerase ribozyme fitness (log ratio)” value: -2.6 for the first, -1.84 for the second.

First: GACCAAUCUGCACUCAGAGCUCGAGAACAUCUUCGGAUGCAGAGGAGGCAGGCUUCGGUGGCGCGAUAGCGCCAACGUCCUCAACCUCCAAUGCAUCCCACCACAUGAUGAUGCCUAAAGAGCCUUGGUUUUUUG [C12A G117A]
Second: GACCAAUCUGCACUCAGAGCUCGAGAACAUCUUCGGAUCCAGAGGAAGCAGGCUUCGGUGGCGCGUUAGCGCCAACGUCCUCAACCUCCAAUGCAUCCCACCACAUGAUGAUGCCUGAAGAGCCUUGGUUUUUUG [C12A G39C G47A A66U]
The “polymerase ribozyme fitness (log ratio)” value of the first is higher: -1.29 for the first, -3.14 for the second.

Compared with GACCAAUCUGCACUCAGAACUGGAGACCAACUUCGGAUGAAGAGGCGGCAGGCUUAGGUGGCGCGAUAGCGCCAACGUCCUAAACCUCCAAGGCAUCCCACCACAUGAGGAUGCCUGAAGAGCCUUGGUUUUUUG [C12A G19A C22G A27C U30A C40A A46C C56A C82A U92G U109G], GACCAAUCUGCACUCAGAGCUCGAGAACAUCUUCGGAUGCAGAGGAGGCAGGCUUCUGUGGCGCGAUAGCGCCAACGUCCUCAACCUCCAGUGCAACCCACCACAUGAUGAUGCCUGAAGAGCCUUGGUUUUUUG [C12A G57U A91G U96A] is higher in “polymerase ribozyme fitness (log ratio)” value: -8.5 for the first, -3.09 for the second.

Compared with GACCAAUCUGCACUCAGAGCUCGAGAACAUCUUCGGAUGCAGAGGAGUCAGGCUUCGGUGGCGCGAUAGCGCCAACGUCCUCAACCUCCAAUGCAUCUCACCACAUGAUGAUGCCUGAAGAGCCUUGGUUUUUUG [C12A G48U C98U], GACCAAUCUGCACUCAGAUCUCGAGAACAUCUUCGGAUGCAUAGGAGGCAGGCUUCGGUGGCGCGAUAGCGCCAACGUCCUCAACCUCCAAAGCAUCCCACCACAUGAUGACGCCUGAAGAGCCUUGGGUUUUUG [C12A G19U G42U U92A U112C U129G] is lower in “polymerase ribozyme fitness (log ratio)” value: -2.11 for the first, -3.59 for the second.

First: GACCAAUCUGCACUCAGAGCUCGAGAACAUCUUCGGAUGCAGAGGAGGCAGGCUUCGGUGGCGCGAUAGCGCCAACGUCCUCAACCUCCAAUGCAUCCCACCACAUGAUGAUGUCUGAAGAGCCUUGGUUUUUUA [C12A C114U G135A]
Second: GACCAAUCUGCACUCAGAGCUCGAGAACAUCUUCGGAUGCAGAGGAGGCAGGCUUCGGUGUCGCGCUAGCGCCAACGCCAUCAACCUCCAAUGCAUCCCACCACAUUAUGAUGUCUGAAGAGCCUUCGUUUUUUG [C12A G61U A66C U78C C80A G107U C114U G127C]
The “polymerase ribozyme fitness (log ratio)” value of the first is higher: -3.81 for the first, -6.6 for the second.

First: GACCAAUCUGCACUCAGAGCUCGAGAACAUCUUCGGAUGCAGAGGAGGCAGGCUUCGGUGGCGCGAUAGCGCCAACGUCCUCAACCUCCAAUGCAUCCCACCACAUCAUGAUGCCUGACAAGCCUUGGUUUUUUG [C12A G107C A119C G120A]
Second: GACCAAUCUGCACUCAGAGCUCGAGAACAUCUUCGGAUGCAGAGGAGGCAGGCUUCGGUGGCGCGAUAGCGCCAACGUCCUCAACCUCCAAUGCAUCCCACCACAUGAUGAUGCCUGAAAAGCCUGGGUUUUUUG [C12A G120A U126G]
The “polymerase ribozyme fitness (log ratio)” value of the first is lower: -4.18 for the first, 0.354 for the second.

Compared with GACCAAUCUGCACUCAGAGCUCGAGAACAUCUUCGGAUGCAAAGGAGGCAGGCUUCGGUGGCGCGAUAGCGCCAACGUCCUCAACCUUCAAUGCAUCCCACCACAUGAUGAUGACUGAAAAGCCUUGGUUUUUUG [C12A G42A C88U C114A G120A], GACCAAUCUGCACUCAGAGCUCGAGAACAUCUUCGGAUGCAGAGGACGCAGGCUUCGGUGGCGCGAUAGUGCCAACGUCCUCAACCUCCAAUGCAUCCCACCACAUGAUGAUGCCUGAAGAGCCUUGGUUUUUUG [C12A G47C C70U] is higher in “polymerase ribozyme fitness (log ratio)” value: -2.22 for the first, -0.753 for the second.

Going from GACCAAUCUGCACUCAGAUCUCGAGAACAUCUUCGGAUGCAGAGGAGGCAGGCUUCGGUGGCGCGAUAGCGCAAACCUCCUCAACCUCCAAUGCAUCCCACCACAUGAUGAUGCCUGAAGAGCCUUGGUUUUUUG [C12A G19U C73A G77C] to GACCAAUCUGCACUCAGAGCUCGAGAACAUCUUCGGAUGCAGAGCAGGCAGGCUUCGGUGGCGCGAUAGCGCCAACGUCCUCAACCUCCAAUGCAUCCCACCACAUGAUGAUGCCUGAAGAGCCUUGGUUUUUUG [C12A G45C], the “polymerase ribozyme fitness (log ratio)” value rises from -5.03 to -1.32.

GACCAAUCUGCACUCAGAGCUCGAGAACAUCUUCGGAUGCAGAGGAGGCAGGCUUCGGUGGCCCGAUAGCGCCAACGUCCUCAACCUCCAAUGCAUCCCACGAUAUGAUGAUACCUGAAGAGCCUUGGUUUUUUG [C12A G63C C102G C104U G113A] and GACCAAUCUGCACUCAGAGCUCGAGAACAUCUUCGGAUGCAGAGGAGGCAGGCUUCGGUGCCGCGAUAGCGCCAACGCCUUAAACCUCCAAUGCAUCCCACCACAUGAUGAUGCCUGAAGCGCCUUGGUUUUUUG [C12A G61C U78C C80U C82A A121C] are within 0.2 log units of each other in “polymerase ribozyme fitness (log ratio)” value: -7.42 for the first, -7.45 for the second.

With GACCAAUCUGCACUCAGAGCUCGAGAACAUCUUCGGAUGCAGAGGAGGCAGGCUUCGGUGGCGCGAUAGCGCCAACGUCCUCAACCUCCAAUGCAUCCCACCACAUGAUCAUGCCUGAAGAGCCUUGGUUUUUUG [C12A G110C] the “polymerase ribozyme fitness (log ratio)” value was -3.17.
